Data from the nanobody polyreactivity screen of Harvey et al. (2022).

Test: yeast display, Sf9 membrane polyspecificity reagent, FACS + sequencing; frameworks hold sequencing errors
Summary of the method: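 Polyreactivity labels are assigned by the sorting gate from which each nanobody was recovered. The gates were low and high (top ~1%), set on anti-HA fluorescence for expression and streptavidin fluorescence for reagent binding. Before sorting, galactose-induced (36–48 hours) yeast display cells were stained for 1 hour at 4 °C with 10% biotinylated, detergent-solubilized Sf9 membrane reagent.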

Row | Sequence | polyreactivity (PSR sort gate)
1 | QVQLVESGGGLVQAGGSLRLSCAASGRTIRSYAMGRSRQAPGKEREWVAAISWSGGRTYYADSVKGRFTISRDNAKYTVYLQMTSLKPEDTADYYCAARVSVGVPRYEYWGQGTQVTVSA | high polyreactivity
2 | QVQLVESGGGLVQAGGSLRLSCAASGRTISHNVMGWYIKAPGKERELVAAISRNGGRTYYADSVKGRFTISRDNAKNTVYLQMNSLKPEDTAVYYCAKRRSYFLHSYYSYGYWGQGTQVTVSS | high polyreactivity
3 | QVQLVESGGGLVQAGGSLRLSCAASGRTISINAMGWYRQAPGKERELVADISKSGGRTYYADSVKGRFTISRDNAKNTVYLQMNSLKPEDTAVYYCAKGAYYVPVIYHAVYSWGQGTQVTVSS | low polyreactivity
4 | QVQLVESGGGLVQAGGSLRLSCAASGRTISRYAMGWYRQAPGKERELVATITSGGSTNYADSVKGRFTISRDNAKNTLYLQMNSLKPEDTAVYYCNAQSWYIVPYDYWGQGTQVTVSS | low polyreactivity
5 | QVQLVESGGGLVQAGGSLRLSCAASGRTISYAMGWYRQAPGKERELVAAIRYRGGSTYYADSVKGRFTISRDNAKNTVYLQMNSQKPEDTAVYYCAAQDSYTPPILFRRGYLRYDYWGQGTQVTVSS | low polyreactivity
6 | QVQLVESGGGLVQAGGSLRLSCAASGRTIVIYAMGWYRQAPGKERELVAAIRSGGRTNYADSVKVRFTISRDNAKNTVYLQMNSLIPEDTAVYYCATRGWLRSGYDYWGQGTQVTVSS | high polyreactivity
7 | QVQLVESGGGLVQAGGSLRLSCAASGRTIWRYAMGWYRKAPGKERELVAAISWSGTSTYYADSVKGRFTISRDNAKNTVYLQMNSLKPEDTAVYYCAVAYPFYGKTLFSPQADYNYWGQGTQVTVSS | high polyreactivity
8 | QVQLVESGGGLVQAGGSLRLSCAASGRTIWTYVMGWYRQAPGKERELVAAISRSGSSTYYADSVKGRFTISRDNAKNTVYLQMNSLKPEDTAVYYCNKVDGTTLDDHYMDYWGQGTQVTVSS | low polyreactivity
9 | QVQLVESGGGLVQAGGSLRLSCAASGRTIYQYAMGWYRQAPGKERELVAAISRGGSTNYADSLKGRFTISRDNAKNTVYLQMNSLKPEDTAVYYCASWYKFLSLKRLYERDYWGQGTQVTVSS | high polyreactivity
10 | QVQLVESGGGLVQAGGSLRLSCAASGRTIYRYDMGWYRQSPGKERKFVAPISWSGGRTYYADSVKGRFTIARDNAKNTVYLQMNSLKPEDTAVYYCAAEYPWSVGYWRYGLDDYWGQGTQVSVSS | high polyreactivity
11 | QVQLVESGGGLVQAGGSLRLSCAASGRTIYSYAMVLNTQAPGKERELVAAISRRGGSTYYADSVKGRFTISRDNAKNTVYLQLNSLIPEDTAVYYCAKRYTPLPYKGIWYYYWGQGTQVTVSS | high polyreactivity
12 | QVQLVESGGGLVQAGGSLRLSCAASGRTLAHYTMGWYRQAPGKERELVAAITFSGGRTYYAHSVKGRFTISRDNAKNTVYLQMNSLKPEDTAVYYCAAPGRCYYRGDDYWGQGTQVTVSS | low polyreactivity
13 | QVQLVESGGGLVQAGGSLRLSCAASGRTLARNAMGWYRQAPGKERELVAGITSGGSTDYADSVKGRFTISRDNAKNTVYLQMNSLKPEDTAVYYCNRDAGPGGDYWGQGTQVTVSS | low polyreactivity
14 | QVQLVESGGGLVQAGGSLRLSCAASGRTLASNAMGWFRQSPGKERELVAAINRGGSTYYADSVKGRFTISRDNAMNTVYLQMNSLKPEDTAVYYCAVDRYRYPFDYWGQGTQVTVSS | low polyreactivity
15 | QVQLVESGGGLVQAGGSLRLSCAASGRTLDYNAMGLYRQAPGKERELVAAISWTGDSTYYADSVKGRFTISRDNAKNTVNLQMNSLKPEDTAVYYCAASYSRFVDWIGDPGYDYWGQGTQVTVSS | low polyreactivity
16 | QVQLVESGGGLVQAGGSLRLSCAASGRTLFGNAMGWYRQAPAKERELVAAISRRGGSTSYADSVKGRFTISRDNAKNTVYLQMNSLKPEDTAVYYCASAQGKYTGTHYPYDYWGQGTQVTVSS | low polyreactivity
17 | QVQLVESGGGLVQAGGSLRLSCAASGRTLFGNAMGWYRQAPGKERELVAAISRRGGSTSYADSVKGRFTISRDNAKNTVYLQMNSLKPEDTAVYYCAAAQGKYTGTHYPYDYWGQGTQVTVSS | high polyreactivity
18 | QVQLVESGGGLVQAGGSLRLSCAASGRTLGAYAMGWYRQAPGKERELVAAIRWSGSSTYYADSVKGRFTISRDNAKNTVYLQMNSLKPEDTAVYYCAAYWSRVLYGMNYWGQGTQVTVSS | high polyreactivity
19 | QVQLVESGGGLVQAGGSLRLSCAASGRTLGGYAMGWYRQAPGKERELVASITARGGSTYYADSVKGRFTISRDNAKNTVYLQMNSLKPEDTAVYYCATYFARGYNSWGQGTQVTVSS | high polyreactivity
20 | QVQLVESGGGLVQAGGSLRLSCAASGRTLGGYTMGWYRQAPGKERELVAAITTGGSTNYADSVKGRFTISRDNAKNTVYLQMNSLKPEDTAVYYCATDLVFDKRYWYDYWGQGTQVTVSS | low polyreactivity
21 | QVQLVESGGGLVQAGGSLRLSCAASGRTLGIYAMGWYRQAPGTERELVAAITLSGSDTYYADSVKGRFTISRDNAKNTVDLQMNSLKPEDTAVYYCAAKTYGGYGKYGYWGQGTQVTVSS | low polyreactivity
22 | QVQLVESGGGLVQAGGSLRLSCAASGRTLGPYTMGWYRQAPGKERELVAVISSRTGRTYYADSVKGRFTISRDNAKNTVYLQMNSLKPEDTAVYYCNAGGRYHAPSGDYWGQGTQVTVSS | low polyreactivity

Row | Sequence | polyreactivity (PSR sort gate)
23 | QVQLVESGGGLVQAGGSLRLSCAASGRTLGRYAMGWYRQAPGKERELVAAINVGGGTTHYADSVKGRFTISRDNAKNTVYLQMNSLKPEDTAVYYCAASYRDGHIRHDYWGQGTQVTVSS | low polyreactivity
24 | QVQLVESGGGLVQAGGSLRLSCAASGRTLIDNAKGWYRPAPGKERELVASISITNTYYADSVKGRFTISRDNAKNTVYLQMNSLKPEDTAVYYCNAEARPRGVDVEEAYFRYDYWGHGTQVTVSS | low polyreactivity
25 | QVQLVESGGGLVQAGGSLRLSCAASGRTLLAYAMGWYRQAPGKEREFVAAISSRGVRTYYADSVKGRFTISRDNAKNTVYLQMNSLKPEDTAVYYCATRGTKSIKDVPGFRYGYWGQGTQVTVSS | high polyreactivity
26 | QVQLVESGGGLVQAGGSLRLSCAASGRTLLYYAMGWYRQAPGKERELVARISTGGGTSYADSVKGRFTISRDNAKNTVYLQMNSLKPEDTAVFYCAAKRSYRRALLTLDYWGHGTQVTVSS | high polyreactivity
27 | QVQLVESGGGLVQAGGSLRLSCAASGRTLLYYAMGWYRQAPGKERELVASISRGSSTNYADSVKGRFTISRDNAKNTVYLQMNSLKPEDTAVYWGQGTQVTVSS | low polyreactivity
28 | QVQLVESGGGLVQAGGSLRLSCAASGRTLNDYAMEWYRQAPGKERELVAGITSGDSTYYADSVKGRFTISRDNAKNTVYLQMNSLIPEDTAVYYCAADSDTFYYTGYDYDYWGQGTQVTVSS | low polyreactivity
29 | QVQLVESGGGLVQAGGSLRLSCAASGRTLPANGMGWYRQAPGKQREFVAAINWRGGITYYADSVKGRFTISRDNSKNTVYLQMNSLNPEDTAVYYCARLRYFLLNGSLRYGTSDRDYWGQGTQVTVSS | high polyreactivity
30 | QVQLVESGGGLVQAGGSLRLSCAASGRTLPFYAMGWYRPAPGKERELVAAISRSGARTYYADSVKGRFTISRDHAKNTVYLQMNSLKPEDTAVYYFAAGFMWYIGNSKFDYWGQGTQVTVSS | high polyreactivity
31 | QVQLVESGGGLVQAGGSLRLSCAASGRTLPINAMGWYIEAPGKERELVAAISTSGTRTYYADSVKGRFTISRDNAKNTVYLQMNSLKPEDTAVYYCNKDYWKVRSYDYCGQGTQVTVSS | low polyreactivity
32 | QVQLVESGGGLVQAGGSLRLSCAASGRTLPYNAMAWYRQAPGKESELVAAITWSGGRTYYADSVKGRFTISRDNAKNTVYLQMNSLKPEDTAVYYCAAGKSSYGKPKYYYWGQGTQVTVSS | high polyreactivity
33 | QVQLVESGGGLVQAGGSLRLSCAASGRTLQSYAMGWYRQAPGKERELVAAITSTGTTYYADSVKGRFTISRDNAKNTVYLQMNSLKPEDTAVYYCAAGGSIVLGHYHYVKMYYWGQGTQVTVSS | high polyreactivity
34 | QVQLVESGGGLVQAGGSLRLSCAASGRTLQTYVMGWYRQAPGKERELVAAITRGGGSTYYADSVKGRFTISRDNAKNTVYLQMNSLKPEDTAVYYCAASALRFNSRFSHWYNYWGQGTQVTVSS | high polyreactivity
35 | QVQLVESGGGLVQAGGSLRLSCAASGRTLRGNAMGWYRQAPGKERELVAGITSGGSTNYADSVKGRFTISRDNAKNTVYLQMNSLKPEDTAVYYCAAAYYLSFGRYYTNYDYWGQGTQVTVSS | high polyreactivity
36 | QVQLVESGGGLVQAGGSLRLSCAASGRTLRLYAMGWSRQAPGKERELVAAISSRGRTYYADSVKGRFTISRDNAKNTVYLQMNSLKPEDTAVYYCNTAQFLREDYWGQGTQVTVSS | high polyreactivity
37 | QVQLVESGGGLVQAGGSLRLSCAASGRTLRPYAMGWYRQAPGKEREFVAAIRWSGGSTYYADSVKGRFTISRDNAKNTVYLQMNSLKPEDTAVYYCAASFLTYYLSLYDYWGQGTQVTVSS | high polyreactivity
38 | QVQLVESGGGLVQAGGSLRLSCAASGRTLRRYAMGGYRQAPGKERELVAAISSGVSTNYADSVKGRFTISRDNAKNTVYLQMNSLKPEDTAVYYCNKKRPVYALSIVPYYSWGQGTQVTVSS | high polyreactivity
39 | QVQLVESGGGLVQAGGSLRLSCAASGRTLSANAMGWYRQAPGKERELVATISTRGGRTYYADSVKGRFTISRDNAKNTVYLQMNSLKPEDTAVYYCARLPPGDMDYWGQGTQVTVSS | low polyreactivity
40 | QVQLVESGGGLVQAGGSLRLSCAASGRTLSGYAMGWYRQAPGKERELVAAISRRGGRTYYADSVKGRFTISRDNAKNTVYLQMNSLKPEDTAVYYCAAQVYTKTGDWQFYYWGQGTQVTVSS | high polyreactivity
41 | QVQLVESGGGLVQAGGSLRLSCAASGRTLSGYVMGWYRQAPGKERELDAAIDWSGGTTYYADSVKGRFTISRDTAKNTVYVQMNSLKPEDTAVYYCAAEVLSWLYWPYYYWGQGSQVTVSS | high polyreactivity
42 | QVQLVESGGGLVQAGGSLRLSCAASGRTLSRNAMGWYRQAPGKEREFVAAISQRGGSTYYADSVKGRFTISRDNAKNTVYLQMNSLKPEDTAVYYCARRYNAQDYARFDYWGQGTQVTVSS | high polyreactivity
43 | QVQLVESGGGLVQAGGSLRLSCAASGRTLSRYTMGWYRQAPGKERELVAAISTSGSTYYADSVKGRFTISRDNAKNTVYFQMNSLKPEDTAVYYCNAVRRFLQYATGYDYWRQGTQVTVSS | high polyreactivity
